In US20250145684A1 (IMMATICS BIOTECHNOLOGIES, published 2025):

target: T1, HLA-B*08:01 (human); assay: UV peptide exchange ELISA
T1 construct: MHC monomer first loaded with a UV-sensitive peptide that is cleaved by UV light and exchanged for the test peptide
In short: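 Peptide–MHC complexes formed by UV-mediated exchange of a photocleavable ligand; exchange yield assessed by ELISA on streptavidin-coated plates, samples diluted 100-fold. Bound complexes detected with HRP anti-β2m and TMB at 450 nm against HLA-A*02:01 monomer standards (15–500 ng/ml).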

Row | Binder | peptide exchange yield
1 | IPLAIARL [IPLAIARL (SEQ ID NO: 238)] | 50 to 75%
2 | SEPVMRVTL [SEPVMRVTL (SEQ ID NO: 239)] | 20 to 50%
3 | KVIDRKVEL [KVIDRKVEL (SEQ ID NO: 240)] | 20 to 50%
4 | DLVLKRCL [DLVLKRCL (SEQ ID NO: 24)] | ≥ 75%
5 | NAYEAPSI [NAYEAPSI (SEQ ID NO: 241)] | 20 to 50%
6 | KPQSLQLVL [KPQSLQLVL (SEQ ID NO: 242)] | 20 to 50%
7 | EGVPPGTVL [EGVPPGTVL (SEQ ID NO: 243)] | 50 to 75%
8 | HALPPYITVL [HALPPYITVL (SEQ ID NO: 244)] | 20 to 50%
9 | GPRGPSSGHPL [GPRGPSSGHPL (SEQ ID NO: 245)] | 20 to 50%
10 | RLLQKSKEL [RLLQKSKEL (SEQ ID NO: 246)] | 20 to 50%
11 | TPEPSVHAL [TPEPSVHAL (SEQ ID NO: 247)] | 20 to 50%
12 | SEVNKHETAL [SEVNKHETAL (SEQ ID NO: 248)] | 20 to 50%
13 | QQIDRVVEV [QQIDRVVEV (SEQ ID NO: 249)] | 20 to 50%
14 | AARAPPQAL [AARAPPQAL (SEQ ID NO: 250)] | 20 to 50%
15 | HLHPKGREL [HLHPKGREL (SEQ ID NO: 25)] | 20 to 50%
16 | DAAAFFKSV [DAAAFFKSV (SEQ ID NO: 251)] | 20 to 50%
17 | DARCKLAEL [DARCKLAEL (SEQ ID NO: 26)] | 20 to 50%
18 | DPKSRLKSL [DPKSRLKSL (SEQ ID NO: 28)] | 20 to 50%
19 | ELFLHPVL [ELFLHPVL (SEQ ID NO: 29)] | 20 to 50%
20 | DLQKKAQAL [DLQKKAQAL (SEQ ID NO: 30)] | 20 to 50%
21 | SIQSRYISM [SIQSRYISM (SEQ ID NO: 3)] | 50 to 75%
22 | SPRVKWTF [SPRVKWTF (SEQ ID NO: 31)] | 20 to 50%
23 | NPYLKLVL [NPYLKLVL (SEQ ID NO: 32)] | 20 to 50%
24 | WIGLRNLDL [WIGLRNLDL (SEQ ID NO: 33)] | 50 to 75%
25 | IYRKKYIL [IYRKKYIL (SEQ ID NO: 34)] | 20 to 50%

Row | Binder | peptide exchange yield
26 | ELFQRPVL [ELFQRPVL (SEQ ID NO: 35)] | 20 to 50%
27 | IVKIKVQEL [IVKIKVQEL (SEQ ID NO: 36)] | 20 to 50%
28 | EAFSRASL [EAFSRASL (SEQ ID NO: 37)] | 20 to 50%
29 | EVYQKIIL [EVYQKIIL (SEQ ID NO: 38)] | 50 to 75%
30 | DAKSKIEQI [DAKSKIEQI (SEQ ID NO: 39)] | 20 to 50%
31 | ESMLKTTL [ESMLKTTL (SEQ ID NO: 40)] | 20 to 50%
32 | QVMPKTGL [QVMPKTGL (SEQ ID NO: 4)] | 20 to 50%
33 | RGALRTLSL [RGALRTLSL (SEQ ID NO: 41)] | 20 to 50%
34 | VLRRKTLL [VLRRKTLL (SEQ ID NO: 42)] | 20 to 50%
35 | DLKKLVDSL [DLKKLVDSL (SEQ ID NO: 43)] | 50 to 75%
36 | HLTNRVLSL [HLTNRVLSL (SEQ ID NO: 44)] | 50 to 75%
37 | RLKVALSTL [RLKVALSTL (SEQ ID NO: 45)] | 50 to 75%
38 | DLRNKIIAA [DLRNKIIAA (SEQ ID NO: 46)] | 50 to 75%
39 | HSRVKLAQL [HSRVKLAQL (SEQ ID NO: 47)] | 20 to 50%
40 | ELALRQTV [ELALRQTV (SEQ ID NO: 48)] | 20 to 50%
41 | FLRVFTDSL [FLRVFTDSL (SEQ ID NO: 49)] | 50 to 75%
42 | TLRLLVAAL [TLRLLVAAL (SEQ ID NO: 50)] | 50 to 75%
43 | STMPKILAL [STMPKILAL (SEQ ID NO: 5)] | 50 to 75%
44 | ERRVKVSSL [ERRVKVSSL (SEQ ID NO: 51)] | 50 to 75%
45 | ELILKHSL [ELILKHSL (SEQ ID NO: 52)] | 50 to 75%
46 | DLRKLKRQL [DLRKLKRQL (SEQ ID NO: 53)] | 20 to 50%
47 | DLSRRDVSL [DLSRRDVSL (SEQ ID NO: 54)] | 20 to 50%
48 | VLLSRRTAL [VLLSRRTAL (SEQ ID NO: 55)] | 20 to 50%
49 | ILCGSRKMPL [ILCGSRKMPL (SEQ ID NO: 56)] | 20 to 50%
50 | MPLKHYLL [MPLKHYLL (SEQ ID NO: 57)] | 20 to 50%

Row | Binder | peptide exchange yield
51 | LPKKMKLL [LPKKMKLL (SEQ ID NO: 58)] | 20 to 50%
52 | FDFRGKTKVF [FDFRGKTKVF (SEQ ID NO: 59)] | 20 to 50%
53 | MLHIKKAEV [MLHIKKAEV (SEQ ID NO: 60)] | 50 to 75%
54 | NRQKRFVL [NRQKRFVL (SEQ ID NO: 6)] | 20 to 50%
55 | SIKKELVVL [SIKKELVVL (SEQ ID NO: 61)] | 20 to 50%
56 | FMLAKEASL [FMLAKEASL (SEQ ID NO: 62)] | 20 to 50%
57 | YVKRKTNVL [YVKRKTNVL (SEQ ID NO: 63)] | 20 to 50%
58 | FILGREAGAL [FILGREAGAL (SEQ ID NO: 64)] | 20 to 50%
59 | NLLMRNVL [NLLMRNVL (SEQ ID NO: 65)] | 20 to 50%
60 | DLKKTRVL [DLKKTRVL (SEQ ID NO: 66)] | 20 to 50%
61 | DMNTKRAIHTL [DMNTKRAIHTL (SEQ ID NO: 67)] | 20 to 50%
62 | DLKIPRYPV [DLKIPRYPV (SEQ ID NO: 68)] | 50 to 75%
63 | ELARQRLL [ELARQRLL (SEQ ID NO: 69)] | 20 to 50%
64 | RPKGTPPL [RPKGTPPL (SEQ ID NO: 70)] | 20 to 50%
65 | AARLRPAL [AARLRPAL (SEQ ID NO: 7)] | 20 to 50%
66 | HIRIKHTF [HIRIKHTF (SEQ ID NO: 71)] | 50 to 75%
67 | LPLAHHIQL [LPLAHHIQL (SEQ ID NO: 72)] | 50 to 75%
68 | MFPARGVPL [MFPARGVPL (SEQ ID NO: 73)] | 20 to 50%
69 | RLKLRYEGL [RLKLRYEGL (SEQ ID NO: 74)] | 50 to 75%
70 | YARLKNVLL [YARLKNVLL (SEQ ID NO: 75)] | 50 to 75%
71 | HPRLKVNLL [HPRLKVNLL (SEQ ID NO: 76)] | 50 to 75%
72 | LPKLPVPPL [LPKLPVPPL (SEQ ID NO: 77)] | 50 to 75%
73 | DGHMKVFSL [DGHMKVFSL (SEQ ID NO: 78)] | 20 to 50%
74 | GLARIYSF [GLARIYSF (SEQ ID NO: 79)] | 20 to 50%
